The values that follow are results of earlier work, collected in patent publication US20020168685A1, “Covalent chemical inducers of protein dimerization and their uses in high throughput binding screens” (priority 2001, published 2002).

For the series the following is noted: substrate nitrocefin.

B1: E. cloacae P99 wt: wild-type E. cloacae P99 cephase (protein, UniProt P05364 21-381, looked up)
Beta-lactamase: TPVSEKQLAEVVANTITPLMKAQSVPGMAVAVIYQGKPHYYTFGKADIAANKPVTPQTLFELGSISKTFTGVLGGDAIARGEISLDDAVTRYWPQLTGKQWQGIRMLDLATYTAGGLPLQVPDEVTDNASLLRFYQNWQPQWKPGTTRLYANASIGLFGALAVKPSGMPYEQAMTTRVLKPLKLDHTWINVPKAEEAHYAWGYRDGKAVRVSPGMLDAQAYGVKTNVQDMANWVMANMAPENVADASLKQGIALAQSRYWRIGSMYQGLGWEMLNWPVEANTVVEGSDSKVALAPLPVAEVNPPAPPVKASWVHKTGSTGGFGSYVAFIPEKQIGIVMLANTSYPNPARVEAAYHILEALQ
As usually defined, the Km is the concentration of substrate that gives half-maximal velocity. As usually defined, the kcat is the maximal rate divided by the concentration of active sites. Take B1: the “% WT (percentage of wild-type kcat/Km as calculated in that experiment)” value is 100%, the Km is 25 ± 1 µM and the kcat was 780 ± 30 s⁻¹.
